Experiments:
Type in all cases: cell-based
[1] = system: SH-SY5Y cells; test: Live/dead assay; settings: Aβ42 10 μM, 24 h, calcein-AM/propidium iodide, ImageJ analysis
[2] = system: SH-SY5Y cells; test: Membrane toxicity immunocytochemistry; settings: Aβ42 10 μM, 3 h, pH 7.4, OC antibody, confocal
[3] = system: SH-SY5Y cells; test: Neuronal rescue from Aβ42-induced toxicity; settings: Aβ42 10 μM preincubated 48 h pH 7.4, 24 h treatment, Alamar blue

Substance: Aβ42: Amyloid beta 42 peptide, the most toxic form of Aβ (PDB: 1Z0Q)
- Dead cells, Aβ42 alone [1]: ~36%
- Total area covered by red fluorescence-labelled Aβ aggregates, Aβ42 alone [2]: 12.3%
- Cell viability with Aβ42 alone [3]: ~64%
